The supplement of paper PMC7877785
± gives the uncertainty stated by the source.

Experiment: self-splicing fitness, log relative to wild type (ln ratio); higher = more splicing; Tetrahymena group I intron in knt gene, E. coli kanamycin selection, DiMSum; sequences stand for … in CUCUCU…GGAGGGAAAAGUUAUCAGGCAUGCACCUGGUAGCUAGUCUUUAAACCAAUAGAUUGCAUCGGUUUAAAAGGCAAGACCGUCAAAUUGCGGGAAAGGGGUCAACAGCCGUUCAGUACCAAGUCUCAGGGGAAACUUUGAGAUGGCCUUGCAAAGGGUAUGGUAAUAAGCUGACGGACAUGGUCCUAACCACGCAGCCAAGUCCUAAGUCAACAGAUCUUCUGUUGAUAUGGAUGCAGUUCACAGACUAAAUGUCGGUCGGGGAAGAUGUAUUCUUCUCAUAAGAUAUAGUCGGACCUCUCCUUAAUGGGAGCUAGCGGAUGAAGUGAUGCAACACUGGAGCCGCUGGGAACUAAUUUGUAUGCGAAAGUAUAUUGAUUAGUUUUGGAGUACUCGUGGUCG
Procedure, shortened: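 Fitness was computed with DiMSum as the error-weighted combination of replicate fold changes, kanamycin versus none, each normalised to wild type. The library randomised all eight intron nucleotides of the P1ex region, with the intron placed in the knt kanamycin-resistance gene on pET-22b(+) in E. coli BL21(DE3). Six replicate transformations were grown overnight at 37°C or 30°C on LB agar with or without 25 μg/mL kanamycin, plus 100 μg/mL carbenicillin, 50 μM IPTG and 0.2% rhamnose. Pooled colonies were amplicon-sequenced on an Illumina HiSeq 2500.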

Sequence | self-splicing fitness (ln) (30 °C) | self-splicing fitness (ln) (37 °C)
CUAGAGCAAUAUUACGUUGA | -4.21 ± 0.34 | -3.11 ± 0.38
CUAUAGCAAUAUUACGUACA | -2.36 ± 0.17 | -2.05 ± 0.2
GCGUAGCAAUAUUACGGUCC | -1.23 ± 0.38 | -1.02 ± 0.3
AGCAAGCAAUAUUACGCUUA | -2.94 ± 0.15 | -1.71 ± 0.11
CAGAAGCAAUAUUACGGGCG | -0.315 ± 0.089 | -0.0188 ± 0.11
UAUUAGCAAUAUUACGGGCA | -0.498 ± 0.19 | -0.39 ± 0.17
GAACAGCAAUAUUACGAGUA | -2.87 ± 0.12 | -1.98 ± 0.1
AGUCAGCAAUAUUACGUAUU | -1.08 ± 0.079 | -0.181 ± 0.094
CUGGAGCAAUAUUACGACAG | -4.83 ± 0.31 | -2.42 ± 0.49
UUGCAGCAAUAUUACGGAUG | -2.29 ± 0.085 | -1.21 ± 0.1
UACCAGCAAUAUUACGGCGC | -1.32 ± 0.073 | -0.174 ± 0.097
GUUAAGCAAUAUUACGUUAU | -1.62 ± 0.12 | -0.968 ± 0.13
ACAUAGCAAUAUUACGCUAU | -2.9 ± 0.13 | -2.38 ± 0.2
GUCAAGCAAUAUUACGCGGG | -4.2 ± 0.2 | -3.33 ± 0.24
ACGCAGCAAUAUUACGCGGA | -2.95 ± 0.22 | -1.87 ± 0.17
CACCAGCAAUAUUACGAGAA | -3.55 ± 0.43 | -2.33 ± 0.28
GGUGAGCAAUAUUACGAAGG | – | -2.87 ± 0.4
GCGUAGCAAUAUUACGCUAG | -2.9 ± 0.2 | -2.54 ± 0.29
GCUCAGCAAUAUUACGACAU | -0.812 ± 0.012 | -0.159 ± 0.032
CAUUAGCAAUAUUACGAUCU | -2.48 ± 0.2 | -3.22 ± 0.47
AGGGAGCAAUAUUACGGCAU | -3.2 ± 0.2 | -2.46 ± 0.23
GCGAAGCAAUAUUACGAUCU | -1.09 ± 0.066 | -0.73 ± 0.079
UCGAAGCAAUAUUACGAGGA | -3.21 ± 0.39 | -1.19 ± 0.27
CAUCAGCAAUAUUACGGAAG | -0.623 ± 0.054 | -0.416 ± 0.069
UCACAGCAAUAUUACGAUUA | -1.43 ± 0.1 | -0.545 ± 0.11

Sequence | self-splicing fitness (ln) (30 °C) | self-splicing fitness (ln) (37 °C)
CGCCAGCAAUAUUACGAUGA | -2.2 ± 0.12 | -1.48 ± 0.13
CCUAAGCAAUAUUACGAUUA | -3.04 ± 0.19 | -2.62 ± 0.22
ACCUAGCAAUAUUACGCAAC | -1.98 ± 0.16 | -0.895 ± 0.094
CAAAAGCAAUAUUACGAAAA | -2.35 ± 0.18 | -2.11 ± 0.2
UCAUAGCAAUAUUACGCUCC | -2.92 ± 0.31 | -0.786 ± 0.27
GAUGAGCAAUAUUACGCCUA | -1.7 ± 0.29 | -0.51 ± 0.26
GAUAAGCAAUAUUACGGCGG | -2.27 ± 0.12 | -1.32 ± 0.13
GCCCAGCAAUAUUACGUGAU | -0.455 ± 0.046 | -0.00599 ± 0.065
GCUGAGCAAUAUUACGGAGA | -2.79 ± 0.43 | -1.85 ± 0.28
ACAUAGCAAUAUUACGAAGA | -3.19 ± 0.18 | -2.72 ± 0.16
UCGGAGCAAUAUUACGAGCG | -2.48 ± 0.23 | -0.586 ± 0.23
GUGGAGCAAUAUUACGGGUG | -3.8 ± 0.37 | -2.9 ± 0.47
GAAGAGCAAUAUUACGACUA | -2.15 ± 0.29 | -1.92 ± 0.24
GCUUAGCAAUAUUACGACUC | -0.244 ± 0.15 | 0.619 ± 0.18
UUUGAGCAAUAUUACGAUCG | -2.23 ± 0.23 | -1.81 ± 0.29
CCAAAGCAAUAUUACGCGCG | -1.59 ± 0.075 | -0.994 ± 0.1
AUGGAGCAAUAUUACGUUGA | – | -2.38 ± 0.2
CACAAGCAAUAUUACGUGAU | -4.03 ± 0.15 | -2.5 ± 0.15
CCCCAGCAAUAUUACGAUAA | – | -1.49 ± 0.22
UGAAAGCAAUAUUACGUGUA | -1.5 ± 0.091 | -1.08 ± 0.11
CACGAGCAAUAUUACGUAGU | -3.22 ± 0.17 | -2.73 ± 0.26
GGAAAGCAAUAUUACGCCGG | – | -2.24 ± 0.37
GCAUAGCAAUAUUACGGAAG | -3.8 ± 0.34 | -2.09 ± 0.37
ACUUAGCAAUAUUACGAGCA | -1.2 ± 0.12 | -0.129 ± 0.13
ACCCAGCAAUAUUACGCGUG | -3.53 ± 0.17 | -1.9 ± 0.13

Sequence | self-splicing fitness (ln) (30 °C) | self-splicing fitness (ln) (37 °C)
UAUUAGCAAUAUUACGACCC | -3.2 ± 0.38 | -0.71 ± 0.33
CUUAAGCAAUAUUACGCAAC | -3.55 ± 0.27 | -2.37 ± 0.26
GCUUAGCAAUAUUACGCUAA | -2.91 ± 0.21 | -3.01 ± 0.26
CCACAGCAAUAUUACGCUUA | -3.43 ± 0.16 | -2.98 ± 0.18
GUCCAGCAAUAUUACGCCGG | -2.64 ± 0.17 | -2.69 ± 0.31
AGUGAGCAAUAUUACGUAAC | -4.68 ± 0.23 | -1.67 ± 0.14
GUAGAGCAAUAUUACGAUGC | -0.0786 ± 0.15 | -0.434 ± 0.13
ACAAAGCAAUAUUACGUCGC | -2.42 ± 0.11 | -2.23 ± 0.16
UCGCAGCAAUAUUACGUCGA | -1.81 ± 0.13 | -2.03 ± 0.18
UGCCAGCAAUAUUACGCCGG | -4.03 ± 0.21 | -3.05 ± 0.25
CCCAAGCAAUAUUACGAGAG | -2.99 ± 0.079 | -1.93 ± 0.079
CCCGAGCAAUAUUACGGUGA | -2.19 ± 0.1 | -1.32 ± 0.097
GCGAAGCAAUAUUACGUUCC | -2.43 ± 0.37 | -2.29 ± 0.44
AAGCAGCAAUAUUACGAUCC | -1.73 ± 0.24 | 0.0481 ± 0.24
UCCUAGCAAUAUUACGGUCU | -1.59 ± 0.06 | -0.444 ± 0.07
CUGAAGCAAUAUUACGACUC | -1.82 ± 0.22 | –
GUCUAGCAAUAUUACGAACC | -1.25 ± 0.19 | -0.145 ± 0.28
GCACAGCAAUAUUACGACGU | -0.591 ± 0.073 | -0.0751 ± 0.088
CUCUAGCAAUAUUACGGCGU | -3.56 ± 0.27 | -2.83 ± 0.24
UGGCAGCAAUAUUACGACAG | -1.02 ± 0.087 | 0.224 ± 0.11
AAGGAGCAAUAUUACGUUAA | -3.12 ± 0.25 | -1.69 ± 0.19
GUAGAGCAAUAUUACGAUAG | -2.06 ± 0.15 | -1.42 ± 0.14
CUGGAGCAAUAUUACGUUGA | -1.67 ± 0.34 | -2.26 ± 0.49
GGGAAGCAAUAUUACGACGC | -0.0345 ± 0.14 | -0.0751 ± 0.18
GAUUAGCAAUAUUACGACGA | -1.23 ± 0.3 | -0.273 ± 0.2

Sequence | self-splicing fitness (ln) (30 °C) | self-splicing fitness (ln) (37 °C)
CAUAAGCAAUAUUACGCACU | -2.12 ± 0.11 | -0.81 ± 0.11
UAAAAGCAAUAUUACGCUAA | -1.86 ± 0.14 | -0.863 ± 0.13
GCUGAGCAAUAUUACGUCCU | -1.52 ± 0.15 | -1.06 ± 0.2
CAGGAGCAAUAUUACGUGAA | -3.52 ± 0.38 | -3.2 ± 0.43
UUUCAGCAAUAUUACGUGAC | -2.99 ± 0.22 | -1.73 ± 0.48
CGAUAGCAAUAUUACGGACA | -2.4 ± 0.28 | -0.977 ± 0.16
CGUGAGCAAUAUUACGCCAC | -1.74 ± 0.35 | –
UCAUAGCAAUAUUACGGCUC | -2.73 ± 0.24 | -1.78 ± 0.26
ACAGAGCAAUAUUACGGAGA | -3.21 ± 0.26 | -2.6 ± 0.29
GUUAAGCAAUAUUACGCUAU | – | -0.862 ± 0.32
ACUCAGCAAUAUUACGGAGU | -2.78 ± 0.11 | -2.7 ± 0.18
CUAGAGCAAUAUUACGUAGU | -2.72 ± 0.22 | -1.94 ± 0.33
AACUAGCAAUAUUACGCAUA | -1.64 ± 0.15 | -1.1 ± 0.14
GGGGAGCAAUAUUACGUAUG | – | -1.58 ± 0.31
ACGUAGCAAUAUUACGAAAA | -2.5 ± 0.21 | -1.58 ± 0.19
GGCCAGCAAUAUUACGCUGA | -0.636 ± 0.063 | -0.331 ± 0.074
GAAUAGCAAUAUUACGGCAU | -0.386 ± 0.065 | -0.0278 ± 0.083
GUGUAGCAAUAUUACGCUAU | – | -1.15 ± 0.24
CUCAAGCAAUAUUACGGACA | -2.5 ± 0.35 | -2.1 ± 0.32
ACAGAGCAAUAUUACGCGUU | – | -1.16 ± 0.29
CAUUAGCAAUAUUACGAUCA | -2.81 ± 0.33 | -1.46 ± 0.23
UAGCAGCAAUAUUACGUCCG | -0.746 ± 0.055 | 0.357 ± 0.08
GGCAAGCAAUAUUACGGUCU | -0.851 ± 0.093 | -0.575 ± 0.1
